Results as given in patent US20250109212A1.

Target: full length human CD47 (NCBI #NP_942088.1) on 293F-CD47 cells (human) (UniProt Q08722)
Assay: cell-based blocking FACS on 293F-CD47 cells, blocked ligand biotin-labeled human CD172a-Fc, MFI

| Binder | IC50 [nM] |
| --- | --- |
| BSI038×S-004 (bispecific antibody, human IgG2, kappa) heavy: EEELQVIQPDKSVSVAAGESAILHCTITSLIPVGPIQWFRGAGPARELIYNQREGHFPRVTTVSETTKRENMDFSISISNITPADAGTYYCVKFRKGSPDTEFKSGAGTELSVRAKPSAPVVSGPAARATPGGGGSGGGGSEVQLVESGGGLVKPGGSLRLSCAASGFTFSNYGISWVRQAPGKGLEWVSSISSGGDNTYYPDNVKGRFTISRDNAKNSLYLQMNSLRAEDTAVYYCARAGEKAMDYWGQGTLVTVSSASTKGPSVFPLAPCSRSTSESTAALGCLVKDYFPEPVTVSWNSGALTSGVHTFPAVLQSSGLYSLSSVVTVPSSNFGTQTYTCNVDHKPSNTKVDKTVERKCCVECPPCPAPPVAGPSVFLFPPKPKDTLMISRTPEVTCVVVDVSHEDPEVQFNWYVDGVEVHNAKTKPREEQFNSTFRVVSVLTVVHQDWLNGKEYKCKVSNKGLPAPIEKTISKTKGQPREPQVYTLPPSREEMTKNQVSLTCLVKGFYPSDIAVEWESNGQPENNYKTTPPMLDSDGSFFLYSKLTVDKSRWQQGNVFSCSVMHEALHNHYTQKSLSLSPGK light: EIVLTQSPATLSLSPGERATLSCRASQTINNNLHWYQQKPGQAPRLLIKYASQSISGIPARFSGSGSGTDFTLTISSLEPEDFAVYFCQQFSSWPLTFGGGTKVEIKRTVAAPSVFIFPPSDEQLKSGTASVVCLLNNFYPREAKVQWKVDNALQSGNSQESVTEQDSKDSTYSLSSTLTLSKADYEKHKVYACEVTHQGLSSPVTKSFNRGEC | 1.8 |
| BSI038×S-005 (bispecific antibody, human IgG2, kappa) heavy: EEELQVIQPDKSVSVAAGESAILHCTITSLIPVGPIQWFRGAGPARELIYNQREGHFPRVTTVSETTRRENMDFSISISNITPADAGTYYCVKFRKGSPDTEVKSGAGTELSVRAKPSAPVVSGPAARATPGGGGSGGGGSEVQLVESGGGLVKPGGSLRLSCAASGFTFSNYGISWVRQAPGKGLEWVSSISSGGDNTYYPDNVKGRFTISRDNAKNSLYLQMNSLRAEDTAVYYCARAGEKAMDYWGQGTLVTVSSASTKGPSVFPLAPCSRSTSESTAALGCLVKDYFPEPVTVSWNSGALTSGVHTFPAVLQSSGLYSLSSVVTVPSSNFGTQTYTCNVDHKPSNTKVDKTVERKCCVECPPCPAPPVAGPSVFLFPPKPKDTLMISRTPEVTCVVVDVSHEDPEVQFNWYVDGVEVHNAKTKPREEQFNSTFRVVSVLTVVHQDWLNGKEYKCKVSNKGLPAPIEKTISKTKGQPREPQVYTLPPSREEMTKNQVSLTCLVKGFYPSDIAVEWESNGQPENNYKTTPPMLDSDGSFFLYSKLTVDKSRWQQGNVFSCSVMHEALHNHYTQKSLSLSPGK light: EIVLTQSPATLSLSPGERATLSCRASQTINNNLHWYQQKPGQAPRLLIKYASQSISGIPARFSGSGSGTDFTLTISSLEPEDFAVYFCQQFSSWPLTFGGGTKVEIKRTVAAPSVFIFPPSDEQLKSGTASVVCLLNNFYPREAKVQWKVDNALQSGNSQESVTEQDSKDSTYSLSSTLTLSKADYEKHKVYACEVTHQGLSSPVTKSFNRGEC | 1.73 |

Further binders by falling IC50, results first:

| IC50 [nM] | Binder |
| --- | --- |
| 2.37 | SIRPαV2D1M2-Fc (IgG2) (Fc fusion) EEELQVIQPDKSVSVAAGESAILHCTITSLIPVGPIQWFRGAGPARELIYNQREGHFPRVTTVSETTRRENMDFSISISNITPADAGTYYCVKFRKGSPDTEVKSGAGTELSVRAKPSAPVVSGPAARATPGGGGSGGGGSERKCCVECPPCPAPPVAGPSVFLFPPKPKDTLMISRTPEVTCVVVDVSHEDPEVQFNWYVDGVEVHNAKTKPREEQFNSTFRVVSVLTVVHQDWLNGKEYKCKVSNKGLPAPIEKTISKTKGQPREPQVYTLPPSREEMTKNQVSLTCLVKGFYPSDIAVEWESNGQPENNYKTTPPMLDSDGSFFLYSKLTVDKSRWQQGNVFSCSVMHEALHNHYTQKSLSLSPGK |
| 1.84 | SIRPαV2D1M1-Fc (IgG2) (Fc fusion) EEELQVIQPDKSVSVAAGESAILHCTITSLIPVGPIQWFRGAGPARELIYNQREGHFPRVTTVSETTKRENMDFSISISNITPADAGTYYCVKFRKGSPDTEFKSGAGTELSVRAKPSAPVVSGPAARATPGGGGSGGGGSERKCCVECPPCPAPPVAGPSVFLFPPKPKDTLMISRTPEVTCVVVDVSHEDPEVQFNWYVDGVEVHNAKTKPREEQFNSTFRVVSVLTVVHQDWLNGKEYKCKVSNKGLPAPIEKTISKTKGQPREPQVYTLPPSREEMTKNQVSLTCLVKGFYPSDIAVEWESNGQPENNYKTTPPMLDSDGSFFLYSKLTVDKSRWQQGNVFSCSVMHEALHNHYTQKSLSLSPGK |
